Patent US20250136696A1 (HARBOUR BIOMED SHANGHAI, published 2025)
Changes are numbered by the printed parent chain. In names and notes the source's numbering stands.

T1: human B7-H7 on the cell surface (human, UniProt Q9UM44 23-414)
T1 construct: whole, on cells; also called hB7-H7; hu B7-H7
T1 sequence (looked up): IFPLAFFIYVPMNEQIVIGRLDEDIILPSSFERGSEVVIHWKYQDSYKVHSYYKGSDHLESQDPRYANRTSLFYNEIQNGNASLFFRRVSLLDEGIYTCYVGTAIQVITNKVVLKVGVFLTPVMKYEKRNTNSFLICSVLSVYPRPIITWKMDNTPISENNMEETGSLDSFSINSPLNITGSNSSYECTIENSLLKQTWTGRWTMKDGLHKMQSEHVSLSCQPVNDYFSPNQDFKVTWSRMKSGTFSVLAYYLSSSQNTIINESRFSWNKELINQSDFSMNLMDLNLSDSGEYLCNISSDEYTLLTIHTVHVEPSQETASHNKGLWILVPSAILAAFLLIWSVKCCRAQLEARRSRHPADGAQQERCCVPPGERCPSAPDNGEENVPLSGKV

B1: PR004480 (antibody, human IgG1, kappa, L234A L235A, V domains shown)
VH: QVQLVESGGGVVQPGRSLRLSCAASGFTFSDYGIHWVRQAPGKGLEWVAVIWYEGSDKYYADSVRGRFTISRDNSKNTLSLQMNSLRVEDTAVYYCARDRSSGAMGYFVYWGQGTLVTVSS
VL: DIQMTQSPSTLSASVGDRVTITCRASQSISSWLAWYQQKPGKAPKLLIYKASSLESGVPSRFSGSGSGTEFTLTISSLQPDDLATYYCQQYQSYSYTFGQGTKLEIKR
notes: Variant of PR003249, H:D54E; L:N92Q; Human IgG1 LALA; expressed supernatant only
B2: PR004481 (antibody, human IgG1, kappa, L234A L235A, V domains shown)
VH: B1 VH
VL: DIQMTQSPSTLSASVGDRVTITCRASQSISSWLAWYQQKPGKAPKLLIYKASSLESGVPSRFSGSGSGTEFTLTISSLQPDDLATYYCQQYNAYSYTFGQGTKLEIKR
notes: Variant of PR003249, H:D54E; L:S93A; Human IgG1 LALA; expressed supernatant only
B3: PR004482 (antibody, human IgG1, kappa, L234A L235A, V domains shown)
VH: B1 VH with E54D, G55A
VL: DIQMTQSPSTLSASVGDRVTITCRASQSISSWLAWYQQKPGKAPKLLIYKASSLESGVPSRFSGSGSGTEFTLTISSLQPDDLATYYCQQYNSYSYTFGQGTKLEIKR
notes: Variant of PR003249, H:G55A; Human IgG1 LALA; expressed supernatant only
B4: PR004485 (antibody, human IgG1, kappa, L234A L235A, V domains shown)
VH: B1 VH with E54D
VL: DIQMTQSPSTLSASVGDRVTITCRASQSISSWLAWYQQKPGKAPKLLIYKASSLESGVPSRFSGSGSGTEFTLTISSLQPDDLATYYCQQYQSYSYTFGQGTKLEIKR
notes: Variant of PR003249, L:N92Q; Human IgG1 LALA; expressed supernatant only
B5: PR004486 (antibody, human IgG1, kappa, L234A L235A, V domains shown)
VH: B1 VH with E54D
VL: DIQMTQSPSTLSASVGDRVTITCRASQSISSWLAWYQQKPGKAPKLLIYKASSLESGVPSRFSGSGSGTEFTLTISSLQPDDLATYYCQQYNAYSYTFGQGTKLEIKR
notes: Variant of PR003249, L:S93A; Human IgG1 LALA; expressed supernatant only
B6: PR004487 (antibody, human IgG1, kappa, L234A L235A, V domains shown)
VH: QVQLVESGGGVVQPGRSLRLSCAASGFTFSNYGMHWVRQVPGKGLEWVAVIWYEGSEKDYADSVKGRFTISRDNSKNTLYLQMNSLRVEDTAVYYCAKDLISGIYYVDHWGQGTLVTVSS
VL: DIQMTQSPSSLSASVGDRVTITCRASQGISNYLAWYQQKPGKVPKLLIYAASTLQSGVPSRFSGSGSGTDFTLTISSLQPEDVATYYCQKYNSAPFTFGPGTKVDIKR
notes: Variant of PR003259, H:D54E; Human IgG1 LALA; expressed supernatant only
B7: PR004489 (antibody, human IgG1, kappa, L234A L235A, V domains shown)
VH: B6 VH
VL: B6 VL with S93A
notes: Variant of PR003259, H:D54E; L:S93A; Human IgG1 LALA; expressed supernatant only
B8: PR004490 (antibody, human IgG1, kappa, L234A L235A, V domains shown)
VH: B6 VH with E54D, G55A
VL: B6 VL
notes: Variant of PR003259, H:G55A; Human IgG1 LALA; expressed supernatant only
B9: PR004488 (antibody, human IgG1, kappa, L234A L235A, V domains shown)
VH: B6 VH
VL: B6 VL with N92Q
notes: Variant of PR003259, H:D54E; L:N92Q; Human IgG1 LALA; expressed supernatant only
B10: PR004493 (antibody, human IgG1, kappa, L234A L235A, V domains shown)
VH: B6 VH with E54D
VL: B6 VL with N92Q
notes: Variant of PR003259, L:N92Q; Human IgG1 LALA; expressed supernatant only
B11: PR004494 (antibody, human IgG1, kappa, L234A L235A, V domains shown)
VH: B6 VH with E54D
VL: B6 VL with S93A
notes: Variant of PR003259, L:S93A; Human IgG1 LALA; expressed supernatant only
B12: PR004484 (antibody, human IgG1, kappa, L234A L235A, V domains shown)
VH: B1 VH with E54D, G55A
VL: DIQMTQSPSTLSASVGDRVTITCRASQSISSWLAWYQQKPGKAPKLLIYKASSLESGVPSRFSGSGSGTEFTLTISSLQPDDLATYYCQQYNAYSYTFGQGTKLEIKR
notes: Variant of PR003249, H:G55A; L:S93A; Human IgG1 LALA
B13: PR004483 (antibody, human IgG1, kappa, L234A L235A, V domains shown)
VH: B1 VH with E54D, G55A
VL: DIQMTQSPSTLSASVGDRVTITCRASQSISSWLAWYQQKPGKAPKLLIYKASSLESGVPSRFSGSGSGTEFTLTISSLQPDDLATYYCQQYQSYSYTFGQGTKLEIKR
notes: Variant of PR003249, H:G55A; L:N92Q; Human IgG1 LALA
B14: PR004491 (antibody, human IgG1, kappa, L234A L235A, V domains shown)
VH: B6 VH with E54D, G55A
VL: B6 VL with N92Q
notes: Variant of PR003259, H:G55A; L:N92Q; Human IgG1 LALA
B15: PR004492 (antibody, human IgG1, kappa, L234A L235A, V domains shown)
VH: B6 VH with E54D, G55A
VL: B6 VL with S93A
notes: Variant of PR003259, H:G55A; L:S93A; Human IgG1 LALA

These binders were tested against T1, human B7-H7 on the cell surface (assay: flow cytometry on LS180 cells, expression supernatant diluted 1:1, 1:10, 1:100).

binding result | Binder
binds | B1
binds | B2
binds | B3
binds | B4
binds | B5
binds | B6
binds | B7
binds | B8
binds | B9
binds | B10
binds | B11

The binders below were run against T1, human B7-H7 on the cell surface (assay: flow cytometry, LS180 cells).
Description: This example was intended to study the in vitro activity of H2L2 monoclonal antibodies against human B7-H7 in binding to human/cynomolgus monkey B7-H7. Since homologous molecules of B7-H7 were not present in mice, the detection was not performed. […] The cells were adjusted to a cell density of 1×10⁶ cells/mL, respectively. The cells were seeded in a 96-well V-bottom plate (Corning, #3894) at 100 μL/well, and the antibody to be tested at 2× final concentration with 3-fold concentration gradient dilution was then added at 100 μL/well. The cells were incubated at 4° C. for 2 hours in the dark. After the incubation, the cells were rinsed twice by adding pre-chilled PBS containing 2% BSA at 100 μl/well, and centrifuged at 500 g at 4° C. for 5 minutes, and the supernatant was discarded. […] The cells were washed twice by adding pre-chilled PBS containing 2% BSA at 100 μL/well, and centrifuged at 500 g at 4° C. for 5 minutes, and the supernatant was discarded. Finally, the cells were resuspended in pre-chilled PBS containing 2% BSA at 200 μL/well, and the fluorescence signal values were read using an ACEA Novocyte3000 flow cytometer.

EC50 [nM] | Maximum MFI [MFI] | Binder
0.04 | 24600 | B12
0.044 | 25100 | B13
0.066 | 22800 | B14
0.052 | 22900 | B15
